Test results taken from US20140072613A1 (published 2014).

T1: PDK1(h) (human, UniProt O15530 1-556, limits assumed)
T1 sequence (looked up): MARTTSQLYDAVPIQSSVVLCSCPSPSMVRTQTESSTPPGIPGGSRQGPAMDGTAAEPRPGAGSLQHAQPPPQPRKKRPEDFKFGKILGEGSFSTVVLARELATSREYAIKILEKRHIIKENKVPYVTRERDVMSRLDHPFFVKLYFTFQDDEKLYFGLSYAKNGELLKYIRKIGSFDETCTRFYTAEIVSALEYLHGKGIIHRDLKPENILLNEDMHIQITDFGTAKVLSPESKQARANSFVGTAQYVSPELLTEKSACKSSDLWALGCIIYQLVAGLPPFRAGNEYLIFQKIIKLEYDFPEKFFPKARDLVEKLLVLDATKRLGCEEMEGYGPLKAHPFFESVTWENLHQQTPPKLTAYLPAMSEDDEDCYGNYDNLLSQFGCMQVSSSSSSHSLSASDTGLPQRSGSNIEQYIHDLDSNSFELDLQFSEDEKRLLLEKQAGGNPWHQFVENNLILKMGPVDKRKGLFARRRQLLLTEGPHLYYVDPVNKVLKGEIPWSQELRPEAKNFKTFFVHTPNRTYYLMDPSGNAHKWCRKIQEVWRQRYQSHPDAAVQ

T2: SAPK3(h) (human, UniProt P53778 1-367)
T2 sequence (looked up): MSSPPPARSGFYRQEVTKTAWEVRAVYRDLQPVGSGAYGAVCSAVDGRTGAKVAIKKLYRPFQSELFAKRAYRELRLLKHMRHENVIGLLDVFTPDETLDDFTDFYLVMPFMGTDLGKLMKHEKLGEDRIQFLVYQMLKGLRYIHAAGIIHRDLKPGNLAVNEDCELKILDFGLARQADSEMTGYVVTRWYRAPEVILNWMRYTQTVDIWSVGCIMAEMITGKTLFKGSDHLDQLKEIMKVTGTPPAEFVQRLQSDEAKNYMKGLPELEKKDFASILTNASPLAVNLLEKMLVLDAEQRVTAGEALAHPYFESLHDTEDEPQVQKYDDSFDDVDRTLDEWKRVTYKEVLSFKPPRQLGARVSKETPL

T3: EphA1(h) (human, UniProt P21709 569-976, limits assumed)
T3 sequence (looked up): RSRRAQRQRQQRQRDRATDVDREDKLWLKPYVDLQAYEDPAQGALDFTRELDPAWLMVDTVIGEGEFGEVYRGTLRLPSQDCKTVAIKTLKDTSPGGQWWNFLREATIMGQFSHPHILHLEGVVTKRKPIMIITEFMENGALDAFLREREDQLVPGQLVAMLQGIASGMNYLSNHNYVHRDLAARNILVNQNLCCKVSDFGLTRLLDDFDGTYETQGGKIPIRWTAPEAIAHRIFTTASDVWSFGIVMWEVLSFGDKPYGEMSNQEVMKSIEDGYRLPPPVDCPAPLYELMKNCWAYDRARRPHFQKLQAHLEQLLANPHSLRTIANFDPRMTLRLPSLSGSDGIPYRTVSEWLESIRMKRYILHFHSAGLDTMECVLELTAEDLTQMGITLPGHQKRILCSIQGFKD

T4: EphA5(h) (human, UniProt P54756 595-1037, limits assumed)
T4 sequence (looked up): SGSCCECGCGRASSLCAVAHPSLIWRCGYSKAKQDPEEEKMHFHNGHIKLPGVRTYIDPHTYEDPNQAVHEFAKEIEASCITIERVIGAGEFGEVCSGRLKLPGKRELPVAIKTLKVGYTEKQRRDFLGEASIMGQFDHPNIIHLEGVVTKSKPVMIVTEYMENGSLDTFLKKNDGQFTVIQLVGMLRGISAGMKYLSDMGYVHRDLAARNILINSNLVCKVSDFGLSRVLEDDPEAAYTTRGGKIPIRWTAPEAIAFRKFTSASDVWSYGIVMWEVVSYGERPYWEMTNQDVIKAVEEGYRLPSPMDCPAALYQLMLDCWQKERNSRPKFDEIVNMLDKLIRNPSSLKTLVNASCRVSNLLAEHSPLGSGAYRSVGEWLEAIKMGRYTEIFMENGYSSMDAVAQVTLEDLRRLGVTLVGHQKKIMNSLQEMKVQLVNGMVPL

B1: MMI-0400 (peptide)
peptide: KAFAKLAARLYRKALARQLGVAA
B2: MMI-0300 (peptide)
peptide: FAKLAARLYRKALARQLGVAA

Legend:
Assay in all cases: cell-based or functional assay
[1] = target: Hck(h) activated (human, UniProt P08631 251-518, limits assumed)
Hck(h) activated, sequence (P08631 251-518 limits assumed): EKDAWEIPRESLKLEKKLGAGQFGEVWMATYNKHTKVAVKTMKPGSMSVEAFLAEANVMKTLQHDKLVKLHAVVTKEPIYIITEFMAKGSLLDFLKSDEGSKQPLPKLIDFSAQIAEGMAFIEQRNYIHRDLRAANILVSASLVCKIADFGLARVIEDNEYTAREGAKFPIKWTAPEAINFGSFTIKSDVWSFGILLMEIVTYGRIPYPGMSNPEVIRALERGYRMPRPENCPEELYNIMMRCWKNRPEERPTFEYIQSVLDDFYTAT

[2] = target: IGF-1R(h) (human, UniProt P08069 959-1367, limits assumed)
IGF-1R(h), sequence (P08069 959-1367 limits assumed): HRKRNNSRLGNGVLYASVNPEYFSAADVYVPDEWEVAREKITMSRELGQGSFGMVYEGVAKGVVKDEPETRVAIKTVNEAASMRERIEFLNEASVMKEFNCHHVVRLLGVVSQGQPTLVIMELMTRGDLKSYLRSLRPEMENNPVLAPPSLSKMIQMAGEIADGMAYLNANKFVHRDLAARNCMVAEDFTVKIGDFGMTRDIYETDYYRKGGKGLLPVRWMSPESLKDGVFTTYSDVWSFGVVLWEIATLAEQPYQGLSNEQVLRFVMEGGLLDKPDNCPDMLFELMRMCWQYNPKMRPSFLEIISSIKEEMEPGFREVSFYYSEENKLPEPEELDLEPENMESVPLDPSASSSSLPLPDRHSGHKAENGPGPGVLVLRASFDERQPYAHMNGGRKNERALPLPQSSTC

[3] = target: JNK2α2(h) (human, UniProt P45984 1-424)
[4] = target: Met(h) (human, UniProt P08581 956-1390, limits assumed)
[5] = target: Met(Y1248C)(h) (human, UniProt P08581-2 974-1408, limits assumed)
[6] = target: p70S6K(h) (human, UniProt P23443 1-421)
p70S6K(h), sequence (P23443 1-421): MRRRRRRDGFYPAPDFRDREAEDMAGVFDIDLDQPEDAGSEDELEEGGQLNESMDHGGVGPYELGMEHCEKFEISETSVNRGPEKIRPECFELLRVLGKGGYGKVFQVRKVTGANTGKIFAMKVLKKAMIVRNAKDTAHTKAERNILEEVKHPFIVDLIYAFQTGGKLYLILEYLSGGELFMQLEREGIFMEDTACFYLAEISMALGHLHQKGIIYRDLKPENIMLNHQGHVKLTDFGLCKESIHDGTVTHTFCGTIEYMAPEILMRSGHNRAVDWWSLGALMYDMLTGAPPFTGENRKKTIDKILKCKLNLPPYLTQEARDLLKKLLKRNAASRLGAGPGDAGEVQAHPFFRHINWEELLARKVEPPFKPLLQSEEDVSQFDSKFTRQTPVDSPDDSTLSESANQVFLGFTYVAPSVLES

[7] = target: PASK(h) (human, UniProt Q96RG2 879-1323, limits assumed)
PASK(h), sequence (Q96RG2 879-1323 limits assumed): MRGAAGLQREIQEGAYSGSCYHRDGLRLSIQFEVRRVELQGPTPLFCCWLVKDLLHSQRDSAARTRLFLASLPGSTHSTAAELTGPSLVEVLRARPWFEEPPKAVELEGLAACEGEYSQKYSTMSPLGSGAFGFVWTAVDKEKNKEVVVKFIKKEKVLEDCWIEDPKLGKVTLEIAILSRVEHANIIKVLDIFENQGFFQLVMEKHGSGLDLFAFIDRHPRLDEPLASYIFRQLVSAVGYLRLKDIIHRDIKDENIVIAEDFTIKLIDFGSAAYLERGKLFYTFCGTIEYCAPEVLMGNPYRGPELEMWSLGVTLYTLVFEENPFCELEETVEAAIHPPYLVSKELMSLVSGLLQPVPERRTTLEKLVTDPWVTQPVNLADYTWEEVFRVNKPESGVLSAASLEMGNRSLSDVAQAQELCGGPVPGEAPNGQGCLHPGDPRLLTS

[8] = target: PDGFRα(V561D)(h) (human, UniProt P16234 550-1089, limits assumed)
PDGFRα(V561D)(h), sequence (P16234 550-1089 V561D limits assumed): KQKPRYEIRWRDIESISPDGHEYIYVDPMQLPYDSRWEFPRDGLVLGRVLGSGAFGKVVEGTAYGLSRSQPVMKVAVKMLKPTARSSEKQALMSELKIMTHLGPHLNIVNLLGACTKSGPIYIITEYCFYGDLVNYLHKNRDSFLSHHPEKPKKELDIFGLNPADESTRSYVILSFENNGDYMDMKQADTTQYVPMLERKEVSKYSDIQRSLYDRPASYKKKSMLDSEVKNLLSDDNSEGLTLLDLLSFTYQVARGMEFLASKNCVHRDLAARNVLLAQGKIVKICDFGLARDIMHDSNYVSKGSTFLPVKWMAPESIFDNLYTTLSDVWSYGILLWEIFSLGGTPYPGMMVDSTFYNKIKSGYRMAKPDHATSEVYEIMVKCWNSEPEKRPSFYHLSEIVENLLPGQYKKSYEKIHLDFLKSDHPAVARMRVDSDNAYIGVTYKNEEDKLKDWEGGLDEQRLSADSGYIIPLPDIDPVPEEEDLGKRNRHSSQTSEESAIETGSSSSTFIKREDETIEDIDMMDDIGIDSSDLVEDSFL

[9] = target: T1, PDK1(h)
[10] = target: Pim-3(h) (human, UniProt Q86V86 1-326)
[11] = target: SAPK2a(T106M)(h) (human, UniProt Q16539 1-360)
SAPK2a(T106M)(h), sequence (Q16539 whole entry T106M): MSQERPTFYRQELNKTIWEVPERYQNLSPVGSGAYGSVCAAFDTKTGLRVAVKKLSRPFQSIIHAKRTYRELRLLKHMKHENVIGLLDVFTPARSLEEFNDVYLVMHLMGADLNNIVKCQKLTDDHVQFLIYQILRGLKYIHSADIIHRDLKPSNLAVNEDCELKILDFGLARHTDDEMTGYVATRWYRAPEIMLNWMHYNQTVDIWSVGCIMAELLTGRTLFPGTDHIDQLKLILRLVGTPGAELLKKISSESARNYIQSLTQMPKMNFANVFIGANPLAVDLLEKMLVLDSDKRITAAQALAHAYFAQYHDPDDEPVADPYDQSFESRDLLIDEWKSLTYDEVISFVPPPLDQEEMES

[12] = target: T2, SAPK3(h)
[13] = target: T3, EphA1(h)
[14] = target: T4, EphA5(h)

Binder	% activity, 100 µM [1]	% activity, 100 µM [2]	% activity, 100 µM [3]	% activity, 100 µM [4]	% activity, 100 µM [5]	% activity, 100 µM [6]	% activity, 100 µM [7]	% activity, 100 µM [8]	% activity, 100 µM [9]	% activity, 100 µM [10]	% activity, 100 µM [11]	% activity, 100 µM [12]	% activity, 100 µM [13]	% activity, 100 µM [14]
B1	81%	90%	96%	62%	36%	33%	28%	100%	159%	80%	99%	79%	61%	24%
B2	82%	119%	98%	65%	84%	35%	29%	82%	135%	80%	97%	84%	73%	18%
